Results: publication PMC4406087, “Remaining challenges in cellular flavin cofactor homeostasis and flavoprotein biogenesis” (Frontiers in Chemistry, 2015)

Key:
[1] = system: T1, Nc1ncnc2c1ncn2[C@@H]1O[C@H](COP(=O)(O)OP(=O)(O)OP(=O)(O)O)[C@@H](O)[C@H]1O; experiment: spectrofluorimetric FAD synthesis assay; assay type: biochemical, Homo sapiens; conditions: 50 mM Tris-HCl pH 7.5, 5 mM MgCl2, 37°C, FMN 0.1-2 μM, ordered bi-bi, ATP binds first
T1 construct: recombinant 6His-tagged cytosolic isoform 2, purified

[2] = system: T2, Cc1cc2nc3c(=O)[nH]c(=O)nc-3n(C[C@H](O)[C@H](O)[C@H](O)COP(=O)(O)O)c2cc1C; experiment: spectrofluorimetric FAD synthesis assay; assay type: biochemical, Homo sapiens; conditions: 50 mM Tris-HCl pH 7.5, 5 mM MgCl2, 37°C, Km app at the highest ATP (ATP 1 to 100 μM; 8 μM at lowest ATP)
T2 construct: recombinant 6His-tagged cytosolic isoform 2, purified

Chain of 6His-hFADS2 (Homo sapiens) (chain, as listed by the source): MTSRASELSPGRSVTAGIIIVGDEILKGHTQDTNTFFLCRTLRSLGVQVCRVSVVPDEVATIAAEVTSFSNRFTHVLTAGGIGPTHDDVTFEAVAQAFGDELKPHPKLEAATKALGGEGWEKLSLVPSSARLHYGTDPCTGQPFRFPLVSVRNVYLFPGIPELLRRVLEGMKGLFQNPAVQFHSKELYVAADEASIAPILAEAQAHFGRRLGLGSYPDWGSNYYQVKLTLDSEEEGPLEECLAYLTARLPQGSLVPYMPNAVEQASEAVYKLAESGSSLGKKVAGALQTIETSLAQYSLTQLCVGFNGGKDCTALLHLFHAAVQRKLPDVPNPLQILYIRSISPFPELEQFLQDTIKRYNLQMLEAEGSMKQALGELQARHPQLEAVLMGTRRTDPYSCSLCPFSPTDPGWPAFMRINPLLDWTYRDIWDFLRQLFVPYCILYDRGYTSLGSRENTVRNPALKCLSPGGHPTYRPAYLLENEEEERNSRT

Substance: 6His-hFADS2 (Homo sapiens)
- Km [1]: 15 µM
- Km [2]: 0.4 µM
